# In patent publication US20210032352A1 (ANTERA THERAPEUTICS, published 2021):
# T1: human LRP6 ECD, Fc-tagged (human, UniProt O75581 20-1370)
# T1 construct: extracellular domain; Bought; also called LRP co-receptor; not shown: Fc tag of the purchased fusion
# T1 sequence (looked up): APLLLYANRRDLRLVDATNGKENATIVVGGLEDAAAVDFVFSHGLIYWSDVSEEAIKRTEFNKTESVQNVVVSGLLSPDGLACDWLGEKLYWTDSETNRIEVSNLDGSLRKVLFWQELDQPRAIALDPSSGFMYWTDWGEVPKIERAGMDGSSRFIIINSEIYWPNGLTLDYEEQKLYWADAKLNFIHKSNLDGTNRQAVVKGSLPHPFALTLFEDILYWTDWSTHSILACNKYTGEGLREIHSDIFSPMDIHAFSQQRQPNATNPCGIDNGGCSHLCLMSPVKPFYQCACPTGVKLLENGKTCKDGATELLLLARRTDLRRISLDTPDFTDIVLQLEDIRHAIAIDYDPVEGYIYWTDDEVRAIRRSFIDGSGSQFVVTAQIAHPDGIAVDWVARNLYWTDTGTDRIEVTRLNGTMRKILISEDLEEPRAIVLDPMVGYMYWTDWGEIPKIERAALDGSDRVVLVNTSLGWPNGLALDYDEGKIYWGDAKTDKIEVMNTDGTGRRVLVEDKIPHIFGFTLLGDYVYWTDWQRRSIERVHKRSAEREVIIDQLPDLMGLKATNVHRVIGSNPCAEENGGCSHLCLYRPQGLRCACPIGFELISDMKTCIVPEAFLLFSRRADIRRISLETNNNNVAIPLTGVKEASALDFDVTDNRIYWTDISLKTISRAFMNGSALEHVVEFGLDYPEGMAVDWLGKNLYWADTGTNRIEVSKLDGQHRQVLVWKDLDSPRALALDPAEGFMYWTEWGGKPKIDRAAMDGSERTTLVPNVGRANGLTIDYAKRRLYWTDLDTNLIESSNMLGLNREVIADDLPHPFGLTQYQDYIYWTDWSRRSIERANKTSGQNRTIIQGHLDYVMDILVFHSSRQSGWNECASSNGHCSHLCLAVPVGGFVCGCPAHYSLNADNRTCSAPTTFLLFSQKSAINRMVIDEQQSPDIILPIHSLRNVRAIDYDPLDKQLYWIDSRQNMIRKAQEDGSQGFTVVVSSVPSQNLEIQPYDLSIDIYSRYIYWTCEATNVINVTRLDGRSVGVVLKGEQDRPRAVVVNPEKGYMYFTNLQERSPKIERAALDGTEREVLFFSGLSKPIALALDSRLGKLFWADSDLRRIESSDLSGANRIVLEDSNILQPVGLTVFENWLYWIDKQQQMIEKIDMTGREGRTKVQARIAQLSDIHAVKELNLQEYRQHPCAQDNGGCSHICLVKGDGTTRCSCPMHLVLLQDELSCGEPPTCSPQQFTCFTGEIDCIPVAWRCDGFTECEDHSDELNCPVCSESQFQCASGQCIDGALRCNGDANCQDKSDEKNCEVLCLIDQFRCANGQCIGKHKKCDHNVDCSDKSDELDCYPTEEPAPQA
# B1: F^P+P-L6^1+3 (5019-K/H-2539-2542) (bispecific antibody)
# chain 1: EVQLVESGGGLVQPGGSLRLSCAASGFNIGSSSIHWVRQAPGKGLEWVASIYSAFASTSYADSVKGRFTISADTSKNTAYLQMNSLRAEDTAVYYCARYHFPFGFALDYWGQGTLVTVSSGGGGSDIQMTQSPSSLSASVGDRVTITCRASQSVSSAVAWYQQKPGKAPKLLIYSASSLYSGVPSRFSGSRSGTDFTLTISSLQPEDFATYYCQQGVYLFTFGQGTKVEIKLEDKTHTKVEPKTSDKTHTCPPCPAPELLGGPSVFLFPPKPKDTLMISRTPEVTCVVVDVSHEDPEVKFNWYVDGVEVHNAKTKPREEQYNSTYRVVSVLTVLHQDWLNGKEYKCKVSNKALPAPIEKTISKAKGQPREPMVFDLPPSREEMTKNQVSLWCMVKGFYPSDIAVEWESNGQPENNYKTTPPVLDSDGSFFLYSKLTVDKSRWQQGNVFSCSVMHEALHNHYTQKSLSLSPGKSGSETPGTSESATPESGGGEVQLVESGGGLVQPGGSLRLSCAASGFNISYSSIHWVRQAPGKGLEWVAYISSYYGYTYYADSVKGRFTISADTSKNTAYLQMNSLRAEDTAVYYCARAHYFPWAGAMDYWGQGTLVTVSSGGGGSDIQMTQSPSSLSASVGDRVTITCRASQSVSSAVAWYQQKPGKAPKLLIYSASSLYSGVPSRFSGSRSGTDFTLTISSLQPEDFATYYCQQYYWPITFGQGTKVEIK
# chain 2: EVQLVESGGGLVQPGGSLRLSCAASGFNIGSSSIHWVRQAPGKGLEWVASIYSAFASTSYADSVKGRFTISADTSKNTAYLQMNSLRAEDTAVYYCARYHFPFGFALDYWGQGTLVTVSSGGGGSDIQMTQSPSSLSASVGDRVTITCRASQSVSSAVAWYQQKPGKAPKLLIYSASSLYSGVPSRFSGSRSGTDFTLTISSLQPEDFATYYCQQGVYLFTFGQGTKVEIKLEDKTHTKVEPKSSDKTHNCPPCPAPELLGGPSVFLFPPKPKDTLMISRTPEVTCVVVDVSHEDPEVKFNWYVDGVEVHNAKTKPREEQYNSTYRVVSVLTVLHQDWLNGKEYKCKVSNKALPAPIEKTISKAKGQPREPQVYTLPPIRELMTSNQVSLSCAVKGFYPSDIAVEWESNGQPENNYKTTPPVLDSDGSFFLVSKLTVDKSRWQQGNVFSCSVMHEALHNHYTQKSLSLSPGKSGSETPGTSESATPESGGGEVQLVESGGGLVQPGGSLRLSCAASGFNISSYYIHWVRQAPGKGLEWVASIYSSYGYTSYADSVKGRFTISADTSKNTAYLQMNSLRAEDTAVYYCARTVRGSKKPYFSGWAMDYWGQGTLVTVSSGGGGSDIQMTQSPSSLSASVGDRVTITCRASQSVSSAVAWYQQKPGKAPKLLIYSASSLYSGVPSRFSGSRSGTDFTLTISSLQPEDFATYYCQQYSWGPFTFGQGTKVEIK
# Legend:
# [1] = molecular target: T2, CD64 (UniProt P12314 16-288); assay: BLI end point: IgG1, FLAg or Fab immobilised on the sensor, receptor in solution (300 nM; CD64 50 nM), signal normalised to the isotype control
# T2 construct: also called monocyte and macrophage marker CD64
# T2 sequence (P12314 16-288 limits assumed): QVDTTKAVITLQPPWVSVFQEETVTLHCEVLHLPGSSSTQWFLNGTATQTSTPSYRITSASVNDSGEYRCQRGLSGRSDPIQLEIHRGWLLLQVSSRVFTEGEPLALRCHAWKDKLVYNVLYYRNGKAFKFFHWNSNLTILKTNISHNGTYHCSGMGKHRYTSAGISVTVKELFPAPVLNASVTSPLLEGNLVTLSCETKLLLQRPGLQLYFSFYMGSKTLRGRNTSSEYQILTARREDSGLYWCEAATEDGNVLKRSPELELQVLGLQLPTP
# Experimental: (§1) Coated sensors were equilibrated in assay buffer (PBS, 1% BSA, 0.05% Tween20) and transferred into Fc receptor solutions. Association was monitored for 600 seconds, the sensors were transferred to assay buffer, and dissociation was monitored for 600 seconds. CD64 and all other Fc receptors were assayed at 50 nM or 300 nM, respectively, at pH 7.4, unless as indicated. Shake speed was 1000 rpm and temperature was 25° C. End-point response values were taken at the end of the association phase and were normalized to isotype controls. […] The association and disassociation times were 600 or 1200 seconds, respectively.
# [2] = molecular target: T3, C1q (UniProt P02745 23-245; P02746 28-253; P02747 29-245); assay: as above
# T3 construct: also called complement (C1q); Clq
# T3 sequence (P02745 23-245 limits assumed, chain 1 of 3): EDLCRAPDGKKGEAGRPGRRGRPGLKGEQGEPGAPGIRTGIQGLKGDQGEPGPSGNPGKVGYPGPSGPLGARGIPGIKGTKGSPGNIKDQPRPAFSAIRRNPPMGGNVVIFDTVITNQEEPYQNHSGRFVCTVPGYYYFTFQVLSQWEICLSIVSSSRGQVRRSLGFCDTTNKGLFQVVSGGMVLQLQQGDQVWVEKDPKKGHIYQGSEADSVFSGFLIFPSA
# T3 sequence (P02746 28-253 limits assumed, chain 2 of 3): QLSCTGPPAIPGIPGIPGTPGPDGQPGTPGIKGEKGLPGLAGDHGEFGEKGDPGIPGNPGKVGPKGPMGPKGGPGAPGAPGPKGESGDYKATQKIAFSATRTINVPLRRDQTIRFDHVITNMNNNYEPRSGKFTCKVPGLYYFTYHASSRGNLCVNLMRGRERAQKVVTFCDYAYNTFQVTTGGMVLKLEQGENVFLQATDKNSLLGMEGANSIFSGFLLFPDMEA
# T3 sequence (P02747 29-245 limits assumed, chain 3 of 3): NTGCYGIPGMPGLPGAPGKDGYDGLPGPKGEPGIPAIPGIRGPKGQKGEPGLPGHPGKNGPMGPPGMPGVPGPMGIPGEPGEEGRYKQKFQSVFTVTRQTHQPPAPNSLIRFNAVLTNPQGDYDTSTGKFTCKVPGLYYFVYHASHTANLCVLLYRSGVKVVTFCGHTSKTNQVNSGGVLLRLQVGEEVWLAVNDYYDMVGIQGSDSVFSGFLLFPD
# Experimental: as §1
# [3] = molecular target: T4, FZD7 CRD, Fc-tagged (human, UniProt O75084 33-185); assay: kinetic table (called BLI in paragraph 35); quantity name and unit not printed in the table: KD in M follows from FIG. 12A, same values in nM
# [4] = molecular target: T4, FZD7 CRD, Fc-tagged; assay: kinetic table (called BLI in paragraph 170)
# [5] = molecular target: T5, FZD1 CRD, Fc-tagged (human, UniProt Q9UP38 70-250); assay: kinetic table (called BLI in paragraph 170)
# T5 construct: domain: CRD; Bought; not shown: Fc tag of the purchased fusion
# T5 sequence (Q9UP38 70-250): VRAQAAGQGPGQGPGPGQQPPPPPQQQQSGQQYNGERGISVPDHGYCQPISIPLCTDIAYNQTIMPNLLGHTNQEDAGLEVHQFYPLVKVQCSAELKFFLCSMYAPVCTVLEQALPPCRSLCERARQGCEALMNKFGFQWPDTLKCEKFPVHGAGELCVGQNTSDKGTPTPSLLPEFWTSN
# [6] = molecular target: T6, FZD2 CRD, Fc-tagged (human, UniProt Q14332 24-190); assay: kinetic table (called BLI in paragraph 170)
# T6 construct: domain: CRD; Bought; not shown: Fc tag of the purchased fusion
# [7] = molecular target: T1, human LRP6 ECD, Fc-tagged; assay: BLI kinetics, human LRP6 ECD
# [8] = molecular target: FcRn (UniProt P55899 24-297; P61769 21-119); assay: steady-state BLI at pH 6.0, FcRn immobilised, serial dilutions (0.1-225 nM) of the FLAg in solution
# FcRn, sequence (P55899 24-297 limits assumed, chain 1 of 2): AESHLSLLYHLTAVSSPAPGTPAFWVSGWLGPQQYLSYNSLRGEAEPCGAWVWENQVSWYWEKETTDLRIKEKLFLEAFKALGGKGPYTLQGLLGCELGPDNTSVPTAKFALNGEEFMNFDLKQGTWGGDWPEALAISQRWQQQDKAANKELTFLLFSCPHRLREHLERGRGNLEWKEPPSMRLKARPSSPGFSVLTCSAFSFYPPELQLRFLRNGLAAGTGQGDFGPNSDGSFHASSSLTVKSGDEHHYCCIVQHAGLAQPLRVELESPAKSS
# FcRn, sequence (P61769 21-119 limits assumed, chain 2 of 2): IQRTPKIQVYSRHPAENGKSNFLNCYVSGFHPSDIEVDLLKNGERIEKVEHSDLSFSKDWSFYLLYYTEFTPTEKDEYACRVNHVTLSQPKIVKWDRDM
# Experimental: as §1
# [9] = molecular target: LRP6 on HEK293/HEK293T reporter cells (UniProt O75581 20-1613, limits assumed); assay: cell-based or functional assay
binder,measurement,setting,value
B1,binding result,[1],binds
same,binding result,[2],binds
same,Kd,[3],0.057 nM
same,Kd,[4],0.06 nM
same,Kd,[5],< 0.01 nM
same,Kd,[6],0.04 nM
same,Kd,[7],12 nM
same,EC50 (read off the curve),[8],~10 nM
same,EC50 of activation of a LEF/TCF reporter gene in HEK293T cells,[9],~5 nM
same,"ß-catenin luciferase reporter assay in HEK293 cells, activation over background",[9],~400 fold over background
